# According to article PMC7440162 (Cell, 2020):
# T1: human ISLR2 ECD-Fc (human, UniProt Q6UXK2 19-589, biotin on the AviTag (as SPR ligand))
# T1 sequence: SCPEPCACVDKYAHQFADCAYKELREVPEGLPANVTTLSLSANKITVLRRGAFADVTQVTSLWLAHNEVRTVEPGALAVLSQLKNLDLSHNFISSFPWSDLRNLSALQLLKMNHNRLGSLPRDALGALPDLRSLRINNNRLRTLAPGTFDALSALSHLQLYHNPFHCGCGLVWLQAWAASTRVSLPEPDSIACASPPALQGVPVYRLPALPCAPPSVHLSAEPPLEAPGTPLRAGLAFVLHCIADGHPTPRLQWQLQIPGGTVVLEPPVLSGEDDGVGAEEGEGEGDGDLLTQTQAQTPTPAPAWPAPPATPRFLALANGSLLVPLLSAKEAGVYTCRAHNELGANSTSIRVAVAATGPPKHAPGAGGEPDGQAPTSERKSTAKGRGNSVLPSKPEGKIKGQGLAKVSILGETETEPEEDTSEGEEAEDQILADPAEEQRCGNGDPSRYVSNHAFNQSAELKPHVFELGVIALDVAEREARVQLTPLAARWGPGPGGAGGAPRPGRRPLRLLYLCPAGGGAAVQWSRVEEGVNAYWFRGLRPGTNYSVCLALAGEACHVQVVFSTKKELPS
# T2: mouse Islr2 ECD-Fc (mouse, UniProt Q5RKR3 20-589, biotin on the AviTag (as SPR ligand))
# T2 sequence: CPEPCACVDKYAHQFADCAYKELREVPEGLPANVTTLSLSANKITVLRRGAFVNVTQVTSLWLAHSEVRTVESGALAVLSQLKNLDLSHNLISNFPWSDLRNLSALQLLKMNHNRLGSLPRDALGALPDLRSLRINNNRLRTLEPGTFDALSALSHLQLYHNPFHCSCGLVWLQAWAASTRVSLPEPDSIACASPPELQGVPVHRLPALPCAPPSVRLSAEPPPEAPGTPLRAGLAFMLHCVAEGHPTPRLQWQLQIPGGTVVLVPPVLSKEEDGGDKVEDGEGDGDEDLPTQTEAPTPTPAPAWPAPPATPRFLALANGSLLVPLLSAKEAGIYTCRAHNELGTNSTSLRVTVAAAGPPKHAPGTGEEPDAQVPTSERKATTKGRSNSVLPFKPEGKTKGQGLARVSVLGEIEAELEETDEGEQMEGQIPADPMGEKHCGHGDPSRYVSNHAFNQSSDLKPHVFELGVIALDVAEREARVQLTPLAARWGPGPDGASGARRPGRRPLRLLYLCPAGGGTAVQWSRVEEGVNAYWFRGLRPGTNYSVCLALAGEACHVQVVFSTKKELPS
# T3: mouse Lepr ECD-Fc (mouse, UniProt P48356 22-839, biotin on the AviTag (as SPR ligand))
# T3 sequence: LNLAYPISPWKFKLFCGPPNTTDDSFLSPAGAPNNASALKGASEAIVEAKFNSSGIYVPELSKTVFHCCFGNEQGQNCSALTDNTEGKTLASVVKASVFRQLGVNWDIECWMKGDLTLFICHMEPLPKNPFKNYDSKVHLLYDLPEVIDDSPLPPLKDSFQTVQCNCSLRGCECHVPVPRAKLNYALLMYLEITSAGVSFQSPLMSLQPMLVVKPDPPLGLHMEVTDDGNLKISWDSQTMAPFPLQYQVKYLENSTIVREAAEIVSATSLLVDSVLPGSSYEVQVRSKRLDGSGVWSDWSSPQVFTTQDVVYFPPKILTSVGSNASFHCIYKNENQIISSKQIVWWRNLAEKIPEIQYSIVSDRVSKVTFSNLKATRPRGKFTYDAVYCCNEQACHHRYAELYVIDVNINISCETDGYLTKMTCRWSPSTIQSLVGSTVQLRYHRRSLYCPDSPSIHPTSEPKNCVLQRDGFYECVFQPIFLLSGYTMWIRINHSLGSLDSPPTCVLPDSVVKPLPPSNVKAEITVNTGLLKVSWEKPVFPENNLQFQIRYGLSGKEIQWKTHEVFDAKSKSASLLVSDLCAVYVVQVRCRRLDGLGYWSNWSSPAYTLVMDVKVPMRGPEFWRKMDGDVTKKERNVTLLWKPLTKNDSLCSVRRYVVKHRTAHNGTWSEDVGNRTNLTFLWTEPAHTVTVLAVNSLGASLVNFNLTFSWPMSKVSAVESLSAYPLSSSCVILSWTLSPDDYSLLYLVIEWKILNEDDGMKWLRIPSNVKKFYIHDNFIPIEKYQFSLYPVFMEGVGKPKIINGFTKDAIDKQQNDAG
# T4: WFIKKN2-Fc (human, UniProt Q8TEU8 35-576, biotin on the AviTag (as SPR ligand))
# T4 sequence: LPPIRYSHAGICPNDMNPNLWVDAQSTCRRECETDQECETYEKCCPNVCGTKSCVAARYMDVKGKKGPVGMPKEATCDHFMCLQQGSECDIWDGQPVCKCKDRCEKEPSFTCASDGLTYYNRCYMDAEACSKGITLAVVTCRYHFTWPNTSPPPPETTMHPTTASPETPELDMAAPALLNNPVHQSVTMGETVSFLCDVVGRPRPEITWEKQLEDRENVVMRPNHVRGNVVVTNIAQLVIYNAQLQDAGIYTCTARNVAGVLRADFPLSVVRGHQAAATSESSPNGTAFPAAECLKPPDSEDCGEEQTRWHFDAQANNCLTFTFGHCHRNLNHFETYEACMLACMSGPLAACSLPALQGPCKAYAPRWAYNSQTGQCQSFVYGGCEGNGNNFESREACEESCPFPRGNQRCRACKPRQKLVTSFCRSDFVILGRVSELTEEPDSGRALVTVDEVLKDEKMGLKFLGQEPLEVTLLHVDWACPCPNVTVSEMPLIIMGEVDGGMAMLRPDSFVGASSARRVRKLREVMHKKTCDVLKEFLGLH
# T5: ICAM5 ECD-Fc (human, UniProt Q9UMF0 32-835, biotin on the AviTag (as SPR ligand))
# T5 sequence: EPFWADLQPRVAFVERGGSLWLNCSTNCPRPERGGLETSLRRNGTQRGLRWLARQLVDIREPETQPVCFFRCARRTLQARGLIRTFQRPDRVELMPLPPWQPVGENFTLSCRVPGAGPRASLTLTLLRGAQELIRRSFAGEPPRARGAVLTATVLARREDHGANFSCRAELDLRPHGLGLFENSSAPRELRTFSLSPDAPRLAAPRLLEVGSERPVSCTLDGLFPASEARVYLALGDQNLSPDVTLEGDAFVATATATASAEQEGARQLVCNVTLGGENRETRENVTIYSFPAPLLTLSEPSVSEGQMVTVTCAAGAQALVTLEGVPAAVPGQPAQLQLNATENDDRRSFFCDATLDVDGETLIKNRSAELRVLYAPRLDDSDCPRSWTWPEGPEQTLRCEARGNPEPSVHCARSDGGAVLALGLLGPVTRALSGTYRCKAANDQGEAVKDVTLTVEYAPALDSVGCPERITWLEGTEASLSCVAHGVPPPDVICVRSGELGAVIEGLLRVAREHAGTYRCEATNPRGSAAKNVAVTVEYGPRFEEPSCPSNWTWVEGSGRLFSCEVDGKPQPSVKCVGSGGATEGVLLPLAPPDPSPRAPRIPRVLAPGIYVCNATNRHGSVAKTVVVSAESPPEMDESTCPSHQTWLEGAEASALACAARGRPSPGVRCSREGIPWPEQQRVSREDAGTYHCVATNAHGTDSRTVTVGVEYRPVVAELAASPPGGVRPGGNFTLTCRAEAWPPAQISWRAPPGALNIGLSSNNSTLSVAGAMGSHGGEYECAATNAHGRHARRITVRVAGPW
# Key:
# Assay in all cases: SPR
# human ISLR2 ECD-Fc = target: T1, human ISLR2 ECD-Fc
# mouse Islr2 ECD-Fc = target: T2, mouse Islr2 ECD-Fc
# mouse Lepr ECD-Fc = target: T3, mouse Lepr ECD-Fc
# WFIKKN2-Fc = target: T4, WFIKKN2-Fc
# ICAM5 ECD-Fc = target: T5, ICAM5 ECD-Fc
# LTF-Fc = LTF-Fc (human, UniProt P02788, biotin on the AviTag (as SPR ligand))
# LTF-Fc, sequence (P02788 20-710): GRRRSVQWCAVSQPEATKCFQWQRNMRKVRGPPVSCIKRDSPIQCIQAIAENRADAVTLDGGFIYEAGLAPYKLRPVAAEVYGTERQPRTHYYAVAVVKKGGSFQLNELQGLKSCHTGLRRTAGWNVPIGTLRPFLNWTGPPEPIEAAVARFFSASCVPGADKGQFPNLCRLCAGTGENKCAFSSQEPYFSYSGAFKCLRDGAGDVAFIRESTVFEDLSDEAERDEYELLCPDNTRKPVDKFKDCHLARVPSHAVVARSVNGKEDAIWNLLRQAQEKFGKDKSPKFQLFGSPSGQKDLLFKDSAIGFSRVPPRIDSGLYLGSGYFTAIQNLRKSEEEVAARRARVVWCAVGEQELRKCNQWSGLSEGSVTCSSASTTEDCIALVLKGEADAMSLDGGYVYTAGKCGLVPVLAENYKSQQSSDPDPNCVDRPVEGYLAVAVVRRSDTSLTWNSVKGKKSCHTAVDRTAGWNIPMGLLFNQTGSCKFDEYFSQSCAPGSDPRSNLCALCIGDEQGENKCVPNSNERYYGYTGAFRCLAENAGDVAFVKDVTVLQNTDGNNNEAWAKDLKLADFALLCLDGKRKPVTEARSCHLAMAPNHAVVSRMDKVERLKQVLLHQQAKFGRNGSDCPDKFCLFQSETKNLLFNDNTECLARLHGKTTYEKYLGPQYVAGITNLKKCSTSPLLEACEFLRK
binding result (human ISLR2 ECD-Fc),binding result (mouse Islr2 ECD-Fc),binding result (mouse Lepr ECD-Fc),binding result (WFIKKN2-Fc),binding result (ICAM5 ECD-Fc),binding result (LTF-Fc),Binder
binds,binds,binds,,,,Recombinant Mouse Leptin Protein (monomer) (ligand) VPIQKVQDDTKTLIKTIVTRINDISHTQSVSAKQRVTGLDFIPGLHPILSLSKMDQTLAVYQQVLTSLPSQNVLQIANDLENLRDLLHLLAFSKSCSLPQTSGLQKPESLDGVLEASLYSTEVVALSRLQGSLQDILQQLDVSPEC
binds,,,binds,binds,binds,"IL-6Rα ECD-Fc (Fc fusion, biotin on the AviTag (as SPR ligand)) LAPRRCPAQEVARGVLTSLPGDSVTLTCPGVEPEDNATVHWVLRKPAAGSHPSRWAGMGRRLLLRSVQLHDSGNYSCYRAGRPAGTVHLLVDVPPEEPQLSCFRKSPLSNVVCEWGPRSTPSLTTKAVLLVRKFQNSPAEDFQEPCQYSQESQKFSCQLAVPEGDSSFYIVSMCVASSVGSKFSKTQTFQGCGILQPDPPANITVTAVARNPRWLSVTWQDPHSWNSSFYRLRFELRYRAERSKTFTTWMVKDLQHHCVIHDAWSGLRHVVQLRAQEEFGQGEWSEWSPEAMGTPWTESRSPPAENEVSTPMQALTTNKDDDNILFRDSANATSLPVQDSSSVPLP"
